The source of these data is the supplement of paper PMC9170038.

In this data set the test system is MS2 coat protein. Briefly: apparent KD of MS2 coat protein; designed switch direction (-1 OFF switch, 1 ON switch): -1; higher = weaker reporter binding. The method, boiled down:
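Designed RNA switches were transcribed on Illumina chips by stalled E. coli RNA polymerase and titrated with SNAP-549-labelled MS2 coat protein from 0.7 or 1.5 nM, doubling to 3 µM. Step length ran from 0.8–1.5 h at the lowest concentration to 10–20 min at the highest. The apparent KD is the median over clusters for each design, from curve-fitted normalised cluster fluorescence.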

Where [1] appears, read: Eterna round: R95, input ligand: microRNA oligo, concentration not stated.
Where [2] appears, read: Eterna round: R95, input ligand: FMN 200 uM.
[3] abbreviates: Eterna round: R95, input ligand: none.
[4] abbreviates: input ligand: microRNA oligo, concentration not stated.

Take “AAUUUACAUGAGGAUCACCCAUGUGAGGAUAUGAUACUAUGUACUUCGGUACAUAGUAUCAGAAGGCAUGUGGA [Ex1-3: 91] (puzzle: Exclusion 1)”: under setting [1], the “apparent KD of MS2 coat protein” value was 115 nM.

For the sequence “AAUUUACAUGAGGAUCACCCAUGUGAGGAUAUGGAUUCGCUGGCCGUAGCCAGUGGAUCCAGAAGGCGCGUGAU [JL-ex1-4.28] (Eterna round: R97, puzzle: Exclusion 1)”, the “apparent KD of MS2 coat protein” value reads like this: (input ligand: FMN 200 uM) 182 nM; (input ligand: none) 98.2 nM.

For the sequence “AAUUUGUGAGGAUAUCCAAUAUAUGACAUGAGGAUCACCCAUGUUUCCACUCGUACCUCCGGAGAAGGCACUGCAA [Ex5 #38] (Eterna round: R97, puzzle: Exclusion 5)”, the “apparent KD of MS2 coat protein” value was 21.4 nM (input ligand: FMN 200 uM) and 23.6 nM (input ligand: none).

With “ACAAGCUCUUUGCAUCUUAGUUUUGUUGCUUCGUAUGUAACAUGAGGAUCACCCAUGUAAGACUGAUGUCGUCUUUU [JR_SV3TOV2_Sub087] (puzzle: Sensor v3, turn-off variant 2)”, the “apparent KD of MS2 coat protein” value came to 43.8 nM under setting [2], 30 nM under setting [1] and 48.2 nM under setting [3].

Regarding “ACAAGCUUAAAAAUCCUAAACAUGAGGAUCACCCAUGUUCGUCUUAUAAAAAUAAAAAUAAAAAACAAAAAAUAAAA [Sensor V2: 71] (Eterna round: R96, puzzle: Sensor v2, turn-off variant)”, the “apparent KD of MS2 coat protein” value stood at 39 nM (input ligand: FMN 200 uM), 228 nM under setting [4] and 39.3 nM (input ligand: none).

With “ACAAGCUUUUAGAUUUUCAACAUGAGGAUCACCCAUGUUCGUCUUAUGCUCGGGCUUGGGCGGUGUCCGGGUUUGGG [JL TOV1 3.78 sellena mod] (Eterna round: R97, puzzle: Sensor, turn-off variant 1)”, the “apparent KD of MS2 coat protein” value was found to be 37.1 nM (input ligand: FMN 200 uM) and 39.2 nM (input ligand: none).

Regarding “ACAAGCUUUUUGUUCGUCUUAUACACUCCUAAGAGGACAACAUGAGGAUCACCCAUGUAACAAAGACGAACUCAUGU [Sesor Array 10 - Jieux - Sensor v3, turn-off variant 2] (puzzle: Sensor v3, turn-off variant 2)”, the “apparent KD of MS2 coat protein” value under setting [2] amounted to 14.3 nM, the “apparent KD of MS2 coat protein” value under setting [1] turned out to be 96.3 nM and the “apparent KD of MS2 coat protein” value under setting [3] turned out to be 11.4 nM.

With “ACACGGCGAGGAUAUACAUGAGGAUCACCCAUGUGUCGGCCGGUACGGUAGCACUAGUGUAGAAGGCGCAUUGG [EX3 #38] (Eterna round: R97, puzzle: Exclusion 3)”, the “apparent KD of MS2 coat protein” value reads like this: (input ligand: FMN 200 uM) 28.1 nM; (input ligand: none) 31.1 nM.

For the sequence “ACACUGCGAGGAUAUACAUGAGGAUCACCCAUGUAUCGGUAGUCAAGGUUAAUUUAAGGUAGAAGGCGCGUAUU [JR_Ex3_Sub007] (Eterna round: R97, puzzle: Exclusion 3)”, the “apparent KD of MS2 coat protein” value reads like this: (input ligand: FMN 200 uM) 26.4 nM; (input ligand: none) 24 nM.

In the case of “ACAGUUCUGCAAGGAUAUCGUCCUAGUUUGUUUCGAGAAGGUGCUUUUGUUUUUUCUUUGUGUUGACAUGAGGAUCACCCAUGU [JR_ExcNG1_Sub052] (Eterna round: R96, puzzle: Exclusion NG 1)”, the “apparent KD of MS2 coat protein” value is 20.3 nM (input ligand: FMN 200 uM), 20.6 nM under setting [4] and 28.7 nM (input ligand: none).

For the sequence “ACAGUUCUGCAAGGAUAUCGUUCUAGUUUAGUACGAGAAGGUGCUUUAGUUUUUUCUUUGUGUUGACAUGAGGAUCACCCAUGU [JR_ExcNG1_Sub054] (Eterna round: R96, puzzle: Exclusion NG 1)”, the “apparent KD of MS2 coat protein” value under setting [4] amounted to 17.5 nM.

Turning to “ACAUAGGUAGGAUAUCUAAGUUGAUACAUGAGGAUCACCCAUGUGUUACUCAAGAUCUACAGAGAAGGGCCUGAGG [Eternabot (L2) Solution 93] (Eterna round: R97, puzzle: Exclusion 5)”, the “apparent KD of MS2 coat protein” value stood at 19.7 nM (input ligand: FMN 200 uM) and 15.3 nM (input ligand: none).

Regarding “ACAUGAGGAUCACCCAUGUAAACAUAAUGGCUCAUGUAGAGUCAGGAUAUGCGUGGCUAACAAUCGCAGAAGGGACAAGACUGG [Deportation 29 - Jieux - Exclusion NG 3] (Eterna round: R96, puzzle: Exclusion NG 3)”, the “apparent KD of MS2 coat protein” value reads like this: (input ligand: FMN 200 uM) 22.1 nM; under setting [4], 20.2 nM; (input ligand: none) 24.5 nM.

Consider “ACAUGAGGAUCACCCAUGUACAGGGUUUAGUUUCAUCGUUUGAAGGAUAUACACCGUUAGUUGUCGUAGAAGGUCACAGAUUGG [JR_ExcNG3_Sub009] (Eterna round: R96, puzzle: Exclusion NG 3)”, for which the “apparent KD of MS2 coat protein” value was 153 nM (input ligand: FMN 200 uM), 68.2 nM under setting [4] and 155 nM (input ligand: none).

Consider “ACAUGAGGAUCACCCAUGUCCGGCUGGUCCGUCUCGGCUGUCGAGGAUAUAGCUCGGUGUCCGCGCUAGAAGGUGGGAGCUGGU [Aenatbe mod 68] (Eterna round: R96, puzzle: Exclusion NG 3)”, for which the “apparent KD of MS2 coat protein” value reads like this: (input ligand: FMN 200 uM) 150 nM; under setting [4], 93.3 nM; (input ligand: none) 135 nM.

As to “ACAUGAGGAUCACCCAUGUCCGGCUGGUCCGUUUCGGCUGUCGAGGAUAUAGUUCGGUGUUCGCGCUAGAAGGCGGGAGCUGGC [Aenatbe mod 60] (Eterna round: R96, puzzle: Exclusion NG 3)”, the “apparent KD of MS2 coat protein” value runs as follows: (input ligand: FMN 200 uM) 206 nM; under setting [4], 68.7 nM; (input ligand: none) 114 nM.

As for “ACAUGAGGAUCACCCAUGUCCGGCUGGUCUGUUCCGGCUGUCGAGGAUAUAGUUCGGUGUUCGCGCUAGAAGGCGGGAGCUGGA [Aenatbe mod 52] (Eterna round: R96, puzzle: Exclusion NG 3)”, the “apparent KD of MS2 coat protein” value came out at 150 nM (input ligand: FMN 200 uM), 104 nM under setting [4] and 123 nM (input ligand: none).

For the sequence “ACAUGAGGAUCACCCAUGUCCGGCUGGUCUGUUUCGGCUGUCGAGGAUAUAGUUCGGUGUUCGCGCUAGAAGGCGGGAGCUGGC [Aenatbe mod 59] (Eterna round: R96, puzzle: Exclusion NG 3)”, the “apparent KD of MS2 coat protein” value was 111 nM (input ligand: FMN 200 uM), 56.5 nM under setting [4] and 82.4 nM (input ligand: none).

As for “ACAUGAGGAUCACCCAUGUCCGUCUGGUCUGUCUCGGCUGUCGAGGAUAUAGCCCGGUAUCCGCGCUAGAAGGUGGGAGUCGGC [Aenatbe mod 98] (Eterna round: R96, puzzle: Exclusion NG 3)”, the “apparent KD of MS2 coat protein” value by setting is: (input ligand: FMN 200 uM) 31.4 nM; under setting [4], 28.9 nM; (input ligand: none) 37.3 nM.

For “ACAUGAGGAUCACCCAUGUGAAAACAAUGGCUGACUUAGAGAUAGGAUAUAUGUGCAUAUCAAACAUAGAAGGGUCAUUACUGG [Deportation 89 - Jieux - Exclusion NG 3] (Eterna round: R96, puzzle: Exclusion NG 3)”, the “apparent KD of MS2 coat protein” value is, setting by setting: (input ligand: FMN 200 uM) 37.9 nM; under setting [4], 34.5 nM; (input ligand: none) 39.3 nM.

With “ACAUGAGGAUCACCCAUGUGAAAACAAUGGCUGACUUUGAGAUAGGAUAUUGGUGCAUAUCAAACCAAGAAGGGUCAUUACUGG [Deportation 92 - Jieux - Exclusion NG 3] (Eterna round: R96, puzzle: Exclusion NG 3)”, the “apparent KD of MS2 coat protein” value (input ligand: FMN 200 uM) was 37.5 nM, the “apparent KD of MS2 coat protein” value under setting [4] was found to be 32.8 nM and the “apparent KD of MS2 coat protein” value (input ligand: none) is 48.2 nM.

As for “ACAUGAGGAUCACCCAUGUGACCACGAUGGCUGAUGUAGAGCUAGGAUAUGAGUGAAUAUCUAUCUCAGAAGGAGCUUGACUGG [Deportation 49 - Jieux - Exclusion NG 3] (Eterna round: R96, puzzle: Exclusion NG 3)”, the “apparent KD of MS2 coat protein” value reads like this: (input ligand: FMN 200 uM) 25.7 nM; under setting [4], 16.4 nM; (input ligand: none) 26.2 nM.

Consider “ACAUGAGGAUCACCCAUGUUAUGUUGGGUACUAAAUUAUUCGUAGGAUAUCGAAGCUAGUUUGUGCGAGAAGGACGCAUUUUUU [JR_ExcNG3_Sub058] (Eterna round: R96, puzzle: Exclusion NG 3)”, for which the “apparent KD of MS2 coat protein” value (input ligand: FMN 200 uM) stood at 147 nM, the “apparent KD of MS2 coat protein” value under setting [4] amounted to 176 nM and the “apparent KD of MS2 coat protein” value (input ligand: none) worked out at 201 nM.

In the case of “ACAUGUAAUGUAGGAUAUUUUACACAUGAGGAUCACCCAUGUGACCGGAGGCUUUACUAUGAGUAAAAGAAGGGUAUGUACAUG [Ex NG2 #61] (Eterna round: R96, puzzle: Exclusion NG 2)”, the “apparent KD of MS2 coat protein” value runs as follows: (input ligand: FMN 200 uM) 68.5 nM; under setting [4], 33.1 nM; (input ligand: none) 45.8 nM.

“ACAUGUCAUCGAGGAUAUUGGACACAUGAGGAUCACCCAUGUACCCGGAGGCUUUACUAUGAGUUCGAGAAGGCGAUGUACAUG [Ex NG2 #73] (Eterna round: R96, puzzle: Exclusion NG 2)”: the “apparent KD of MS2 coat protein” value (input ligand: FMN 200 uM) was determined as 83.7 nM, the “apparent KD of MS2 coat protein” value under setting [4] came to 42.4 nM and the “apparent KD of MS2 coat protein” value (input ligand: none) stood at 54.6 nM.

Turning to “ACAUGUCAUCGAGGAUAUUGUACACAUGAGGAUCACCCAUGUACUCGGUUGCUCUAGCAUGAGUUCGAGAAGGCGAUGUACAUU [Ex NG2 #81] (Eterna round: R96, puzzle: Exclusion NG 2)”, the “apparent KD of MS2 coat protein” value runs as follows: (input ligand: FMN 200 uM) 178 nM; under setting [4], 28.9 nM; (input ligand: none) 38.4 nM.

Turning to “ACAUGUGUUGUAGGAUAUAGGAUACAUGAGGAUCACCCAUGUGGAUUCAUGUCAAUGGAAACGUCCUAGAAGGACGACAACAUG [Ex NG2 #22] (Eterna round: R96, puzzle: Exclusion NG 2)”, the “apparent KD of MS2 coat protein” value amounted to 59.5 nM (input ligand: FMN 200 uM), 42.7 nM under setting [4] and 65 nM (input ligand: none).

Regarding “ACAUGUUGCGCAGGAUAUGGGACACAUGAGGAUCACCCAUGUGGUUACAUGUCUUACCAAGCGUCCCAGAAGGGUGUGAACAUG [Ex NG2 #32] (Eterna round: R96, puzzle: Exclusion NG 2)”, the “apparent KD of MS2 coat protein” value by setting is: (input ligand: FMN 200 uM) 26 nM; under setting [4], 16.5 nM; (input ligand: none) 20.3 nM.
